Test results published in the DeepSol protein solubility set.

Test: soluble on expression in E. coli; label from the status in PepcDB or PDB records
For “MSLTTNPVKHTDEHIGALYFSDLPGISNLTCTANYIGGKFWTTAHHCVEGRSRFVGFIEQSDGQYAGIEHVYTKSSDYDIALIKVGSGIDAEQFSLTRSRPAVGKMLEVVGFAVVNPFSSRATMEVTNSNTVANYPMSNLYYKDVFSAKPAGSFPYVISGGDSGAAVWSGETMYGIASGSNGSTKNLAANVGPHVSWIEQTMQNNSNSSPYEILQAFRGGLATSYPKYNQIRDLVDSSEGHHHHHH”, the “soluble on expression in E. coli” value was “not soluble”. With “MLTIAHRLQRESISSGRHSSRISAVFSSPIRASSESRSQHAASSSSSIVSRPESVDEDEEEDGVWPSVTSGGVLVGCACSNSSLTRNESIVVSEGSQALYIASAATAMNGDSVRRRGGDAPDDDEAAGAAPVPAEECNLDALFERFFGDGGADAIRFEPMLPRVYELTLPSIDSRLNFINVGRRHAAFLRHVYGGCDRCEHAAVLNEKMKLFTAVITKLLDVNGILERRETTD” the “soluble on expression in E. coli” value was “not soluble”. For “MFEIATTPMATTVVISGDLDLASRDQFLEVAARLTSLRRSLLTIDMCDVRFMDSTGAAFLISLAETGQRRGWLTVLRGSSDAHRFVLDICGATHLFRFDTEHYCHHTASPA”, the “soluble on expression in E. coli” value was “not soluble”. With “MNPDKTVLSCHNPEWRGERPAPSLIARCAQLAMLLEVSASPKPGNVDREHNYPDTCFEHFVASSVAVYPVFELAAKSTGRIGQLLRSAVYESSAWQQGGNTHFGAFLLLIPLAMAAGEISREQGEQPGCGKTFFRIEAEEFENLASHAHAFVRETDCEDAVEFYRAFGHAGVRVNSVEEFDLEDPEATSDLRNQNITLYSLMEIAKGYDLIANEWTSGFGRCLEGAKIILDFMDARNCREEALAGGSVSICSGTGINEAVVYTFLKLLSKHRDTFIQTKFDAETADYVSSRAGEVLSGWEISGKKAGDFASILPRIQEFDSELLDKRINPGSTADIIIAALFIALLGGLRF” the “soluble on expression in E. coli” value was “not soluble”. With “MGHHHHHHGGHMSLNSTSSPTIAVTAATGKLGQLVVSSLLERGVPADHIVAIVRNPAKAQGLFAPGVQIRQADYNSPEGWDRALAGVQRLLLISSSDLNDRADQHRTVIEAASAAGVELLAYTSLLKADTARMSLAADHQATEKLLTESGVPFVLLRNGWYLENYDLAQALQTGSVLGAAGTGRISAASRKDLAEAAAAALTRDGQAGKVYELAGDEAFSLSELAAELSKQSGKDVQYRNFAPEDYQRTLEGFGLPAPVAQMLVSSDEGVARGELELPNSDLRELIGRPSTSLKEAVASQLAEGGS” the “soluble on expression in E. coli” value was “soluble”. In the case of “ETGGERQLSPEKSEIWGPGLKADVVLPARYFYIQAVDTSGNKFTSSPGEKVFQVKVSAPEEQFTRVGVQVLDRKDGSFIVRYRMYASYKNLKVEIKFQGQHVAKSPYILKG”, the “soluble on expression in E. coli” value was “soluble”. With “SYLPAENHEYVAAKEGVMNIQTNQVMKVIFQLPDYLLNRYTQGVNVSAKMIFDAFPERSFDLTFQEIDTEADPKTGSYKVTMVMERPPELGILPGMSGNAYLVSQNSGATKIPDSALFEENGKTYVWRVDDQGVVAKADITMNDNGQILQGLADGDQIIISGINVIEPGIKVRAWVKERGL” the “soluble on expression in E. coli” value was “not soluble”. For “ADGQQGAPLNSPNTYDVTTWRIKAHPEVTAQSDIGAVINDIIADIKQRQTSPDARPGAAIIIPPGDYDLHTQVVVDVSYLTIAGFGHGFFSRSILDNSNPTGWQNLQPGASHIRVLTSPSAPQAFLVKRAGDPRLSGIVFRDFCLDGVGFTPGKNSYHNGKTGIEVASDNDSFHITGMGFVYLEHALIVRGADALRVNDNMIAECGNCVELTGAGQATIVSGNHMGAGPDGVTLLAENHEGLLVTGNNLFPRGRSLIEFTGCNRCSVTSNRLQGFYPGMLRLLNGCKENLITANHIRRTNEGYPPFIGRGNGLDDLYGVVHIAGDNNLISDNLFAYNVPPANIAPAGAQPTQILIAGGDANVVALNHVVSDVASQHVVLDASTTHSKVLDSGTASQITSYSSDTAIRPTP”, the “soluble on expression in E. coli” value was “soluble”. For “MPPYFSPKSEAPICGYCQLTFSQTGSMTRHRDRLHTKNHTCLICVSNCEGAPILGESIKKHLQHAHGYVDVQSCSCCHWIFENKIQLRTHLDAMKATGQPGDEVVLAKGTFAPGTLSQAAILQSKAYSANRQQKCQQSLKVDSGGFNDLSETQLKFILDNYSQIVGELESPNPKISGCRKRKCGMTIQHVLRDDDFKKIELC”, the “soluble on expression in E. coli” value was “not soluble”. With “MHNQAPIQRRKSTRIYVGNVPIGDGAPIAVQSMTNTRTTDVEATVNQIKALERVGADIVRVSVPTMDAAEAFKLIKQRVNVPLVADIHFDYRIALKVAEYGVDCLRINPGNIGNEERIRMVVDCARDKNIPIRIGVNAGSLEKDLQEKYGEPTPQALLESAMRHVDHLDRLNFDQFKVSVKASDVFLAVESYRLLAKQIDQPLHLGITEAGGARSGAVKSAIGLGLLLSEGIGDTLRVSLAADPVEEIKVGFDILKSLRIRSRGINFIACPTCSRQEFDVIGTVNALEQRLEDIITPMDVSIIGCVVNGPGEALVSTLGVTGGNKKSGLYEDGVRKDRLDNNDMIDQLEARIRAKASQLDEARRIDVQQVGKIITLEHHHHHH” the “soluble on expression in E. coli” value was “not soluble”. In the case of “MKKDVTQKQTIIKFENGHLYTASDSCITEMPLTIKVNEFKFATIICSRNYLEELTLGFLASEGIFLKRNDLQSIHIDESKGFAHVKLTQSVGHHFEHPTKRVLASCCGKSRAFYFQNDAAIAKTSMTTILEHHHHHH”, the “soluble on expression in E. coli” value was “not soluble”. In the case of “MSSRPPFGIVKPSKPTGNPSSGSSELDSTAQPPQERGTDLQRASSGSDVHGHPSPGSQSHNLTSAQSGGRNAHKDLHERHVHPSQGYQRHGSKAPAHGHPSSQGARRSQLKLSNFPKLLANLMQDTKATQDFNSKYHSDFKKSKNSLITGESIFKFSHGIINFFFGRTSASCASNQDTLQPTASTMSDGEPEEDKVKLCGNRLEVGVTDNLAGTQRRKEQQQLQGAQAKKQQAPQRVVNRKANHQKLSRKRRYAPYKDDVIGAHGFFNNMR”, the “soluble on expression in E. coli” value was “not soluble”. With “MGSDKIHHHHHHMGLYDLLDAEGKDDQKGKSPGVAVGVVADNQDPEGMGRVKVRFPWKDDADESTWARVVTPMAGKGRGLWFLPEVGDEVLVAFDHGDVQHPYVLGSLWNGTDTPPGDNGDGNNNIRKITSRSGHELVFDDTSGAEKVVIRTKAGHAITLDDAGGGEKIEIKDKSGSNKLVIDSAQNSIGIESSMKLTIKGQMVEIQSDANMTLKAGAVMTIQGSMVKIN” the “soluble on expression in E. coli” value was “not soluble”. In the case of “MSLSTNLITTGIGTEQLEQLLSEYFPTYQISRIDRDSTGRKGALEHHLNAIQTGKSQILIGTQMLAKGHHFPNVTLVALVNVDSALFSTDFRAEERLAQLYLQVAGRAGRAEKTGEVVLQTHYPDHPLLKCLLKDGYNAFAEEALKMRQVMALPPFTAQVLFRATGKQSDKVEHLLQNLTAYFQHKSVELGIEGIQISPPFSAIVAKKAGYYRWLLLIQHQSRSAIQQLLNVFDQEKSALNLPANIRLSLDVDPYDMSEGHHHHHH”, the “soluble on expression in E. coli” value was “not soluble”. In the case of “MSSSNKESASDLIRAKDAGLLDIWALPSFDPHVEPEPEPEPEPVDEPAEMEEVPLDEVQPLTLEELESIRQEAWNEGFATGEKEGFHSTQLKVRQEAEVVLAAKVASLEQLMGHLLAPIAEQDTQIEKAVIHLVEHIARQVIQRELVTDSGQIASVLRDALKLLPMGAQNLRIFINPQDFLLVKAMRERHEEAWKIVEDEDLLPGGCRIETEHSRIDASVETRIALAISKMHDQLHEQVTHPAAADLSVDLDASPVSTAKTEDSDVDALDAP”, the “soluble on expression in E. coli” value was “not soluble”. In the case of “STATIDRRLSTLNPNAPVFDPVEFREVEDFSPKWWDLVTTSKWFRDFWLSANSENEFLGGDDFSVMEEEFEEMIASSDGGSMADTVTEADVASYLKMLLNIAESTKEKIYRSKVSSCSPKYNQKKYMNPNFNCRRNHHIYQPR”, the “soluble on expression in E. coli” value was “soluble”. With “MGSDKIHHHHHHMFKRETKDFINIDPLQTGGKLTEEARQALLEWGDGYSVCDFCTTGRLDEIKTPPIHDFIHNQLPKFLGCDVARVTNGAREAKFAVMHSLAKKDAWVVMDENCHYSSYVAAERAGLNIALVPKTDYPDYAITPENFAQTIEETKKRGEVVLALITYPDGNYGNLPDVKKIAKVCSEYDVPLLVNGAYAIGRMPVSLKEIGADFIVGSGHKSMAASGPIGVMGMKEEWAEIVLRRSEKYKNKEVELLGCTARGATIITLMASFPHVRERIKRWDEEVEKARRFAAEMEKLGIKQLGDNPHNHDLMFFHAEVLYEISKKAKGGRFFLYRELKSRKIHGIKPGLTRYFKLSTYGLSDEEVDYVLNAFKEIIEKYS” the “soluble on expression in E. coli” value was “not soluble”. For “MADVALRITETVARLQKELKCGICCSTYKDPILSTCFHIFCRSCINACFERKRKVQCPICRSVLDKRSCRDTYQITMAVQNYLKLSEAFKKDIENMNTFKSLPPEKMFMESQMPLDITIIPENDGKRCAPDFAIPFLPVRRKRPSRPQPPSAFAEEPAEPVEPPEPATKQPVELQSRVFPLEKLKKDVETSTETYKISREELKNVDIEEYINTLRENSTEIDEIDALFQLMPTMRQFLRNNINQLMEKFHVAPPKKSEKPANRRVSFASSQDLENIKIMTASESLETPPEPIQKLAQKPEVFKSTQNLIDLNLNTAVKKPVVVASDDDEVVEDSEGELQIDEDDLANVTCATSVRNIGKSLCAEYIREGRSISQKSTAYLYAIARKCVIVGRQWLVDCITTGLLLSEADYTITSCSSTIPVKIPPSIGSEMGWLRSRNDEHGKLFAGRRFMILRKFTMNPYFDYKQLIELVQQCGGEILSCYENLSPEKLYIIFSKHSKAIEESKNIENLYKCDVVTMEWVLDSISEYLILPTQPYKAVDSIGCLQD”, the “soluble on expression in E. coli” value was “not soluble”. For “MGSDKIHHHHHHMLSRQGEYKSWEITEAVLPVASNQEEAKNILTDTNVATITKFYGRYQDFMEMPAPAEKVAEYLNAHALWFSRCAEPMKVQLLGENGYALVIGRFGAFGYEVEPKIGLELLPPEEGIYRIRTIPIPDYQSPGYDVDYRASLQLIENDACSSGEVTRVEWELDLIVDLHFPRFIQRLPKSIIQSTGDRLLNQIVRQVSRRLTRKVQQDFQKSLEIPFSGNSKQKR”, the “soluble on expression in E. coli” value was “not soluble”. For “MGSDKIHHHHHHMQINRLTLTNFRGLTNSVLDFAPGFNLVVGVNGVGKTAVLEALRILLAKALPSFAEVRGFPGIGLTKDDITIDRKQAAIEVSFTHQAHTFSLLLSDQLEVVRDAVDEQKGLKDIRDIDELASLRHGQRPERGDPRLEGTLRGQTSERPRASGQLSPTPDRALKKSKPQPIVLYFSVRRAVPSPGTPKTKAGTPYQGIFEIERGLELGKIIEWWNSKATVAREAPDSRSAKQLTTTCNALERLLPHLSDWKVEDGNFTVCKVADVGVLNDESGEFEVKQETRRLPVQFLSDGERSLIAIGIDIAYRLASLNEDSETPLDDGEGIVLIDELDLHLHPQWQRTVVELLRTAFPKLQFICTTHSLFLIQSQRMGNLIQLDRIGDEEESAEQYHNQSIEDIAEEVQGIDLPQRSKRHVELMLAASEYYRALKKAEDDPNIPIEELKEKYEALSLRYSADPLVAAALDFRWETFVFKRNHATRR”, the “soluble on expression in E. coli” value was “not soluble”. With “MGSDKIHHHHHHMQGSRFAFGPFVLDPGAGTLLRNDDPVAVGYRGLKLLAALVGRPGEILEKAELMDAAWPGTAVEEGNLTVQIAQLRKLLGPPADGGEWISTVPRVGYRFTGAIEQLDRAKRKPLPLPDKPSIAVLPFVNLSNDPEQEAFADGLTEDLITDLSRAPGLFVIARNSTFAYKGKAMDVRAIAEELGVRYLLEGSARRAAGRVRINAQLVDAKSGEHLWAERFDRGLDDIFAVQDEATAKIVEALLGRLRAPPPRNRPTNLEAYDLCVRARKLIEESPQTAREAHLLLTRAVSLDPEYAEAHRWLAMNHWMGWVHWGEPVDPNRRIALELARKAVAIDPNDAGCRWVLGNLLAYEHSFEESEAEFAKAFELDPNEADAWATLSDIAVLAGRVEEGLEHIRKAFRLNPYPASWYYLTLGEAQYAARDYEAAVETLRREETYRTSSRRFLAASLAQLGRLDEARAEVEMFLIGNPHFTTSYWVWTEPFRDDAMRDHFVDGFRKAGLPD” the “soluble on expression in E. coli” value was “not soluble”.
